Experimental findings from article PMC2018723 are described below.

In the experiment the target is viral nucleoprotein complex (HIV-1) (HIV-1 (pNL4-3)). Kind of experiment: co-sedimentation; concentrated vif-defective HIV-1 virions from transfected HeLa cells loaded on a 20%/60% sucrose step gradient overlaid with 100 ul of 1% Triton X-100 (results: 0.1% Triton X-100) or PBS; SW55Ti, 60 min, 35,000 rpm, 4°C; fractions S1-S3 immunoblotted for APOBEC, CA, NC, MA. Background: Immunoblotting shows a protein as a band on a membrane.

“APOBEC3G (from UniProt Q9HC16 1-384) (enzyme)”: the percent of virus-associated A3G copurifying with viral NPCs was more than 70%.
